# Experimental data reported in patent publication US9809653B2, “Anti-LAMP1 antibodies and antibody drug conjugates, and uses thereof” (SANOFI, priority 2012, dated 2017).
# Assays:
# [1] = molecular target: T1, human LAMP1 expressed at the cell surface of recombinant HCT116 (HCT116 huLAMP1 clone 8) (Homo sapiens, UniProt P11279); experiment: FACS on recombinant HCT116 stable clones expressing human LAMP1; assay type: binding
# T1 construct: full length human and cynomolgus monkey LAMP1 expressed at the cell surface of a recombinant cell line, wherein the cell line may be HCT116; expressed in transfected cells
# T1 sequence (P11279 29-417): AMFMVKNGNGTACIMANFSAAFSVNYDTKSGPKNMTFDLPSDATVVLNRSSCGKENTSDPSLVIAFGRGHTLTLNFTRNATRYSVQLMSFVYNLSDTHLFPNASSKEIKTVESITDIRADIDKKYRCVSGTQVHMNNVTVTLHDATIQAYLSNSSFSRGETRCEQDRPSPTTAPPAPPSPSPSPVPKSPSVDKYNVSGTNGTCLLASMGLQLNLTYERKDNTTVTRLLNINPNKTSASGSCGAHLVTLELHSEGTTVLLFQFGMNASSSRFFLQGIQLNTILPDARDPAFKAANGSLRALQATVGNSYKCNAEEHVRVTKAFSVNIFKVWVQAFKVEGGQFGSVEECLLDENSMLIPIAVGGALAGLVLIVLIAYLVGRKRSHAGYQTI
# Experimental: HCT116 cells were infected by a lentiviral vector allowing stable integration of the human or the cynomolgus LAMP1 CDS in genomic DNA of cells. Individual clones with different densities of human or cynomolgus LAMP1 cell surface localization were derived from a pool of HCT116 infected cells. […] 100 μL/well of goat anti-human IgG conjugated with Alexa488 (Invitrogen; #A11013) was added for 1 h at 4° C. and washed two times with PBS 1% BSA. The antibody binding was evaluated after centrifugation and resuspension of cells in 100 μl fixing solution (paraformaldehyde at 4% in PBS). Samples were read using Galaxy® Flow Cytometry System (Partec). EC50 values were estimated using BIOST@T-SPEED software.
# 100 μL/well of goat anti-mouse IgG conjugated with Alexa647 (Invitrogen; #A2135) was added for 45 min at 4° C. and washed three times with PBS 1% BSA. The antibody binding was evaluated after centrifugation and re-suspension of cells by adding 200 μl/well PBS 1% BSA and read using Guava® easyCyte™ 8HT Flow Cytometry System. EC50 values were estimated using BIOST@T-SPEED software.
# HCT116 stable clone was obtained as described above. […]
# DM4-SPDB-huMAb1_1 was assessed by flow cytometry for its ability to bind to human LAMP1 or cynomolgus LAMP1 proteins expressed respectively at the surface of HCT116 or HEK293 stable clones, both obtained as described in the protocol of example 4.7. […]
# [2] = molecular target: T2, Hybrid LAMP1 / glycan-deleted LAMP1 transmembrane proteins (Homo sapiens, UniProt P11279, D66S/F65I/K57A/K61Q/M63V/N62I/P60S/S58N/T64N); experiment: Binding onto membrane-anchored hybrid or mutated LAMP1 proteins (293-F cells) by flow cytometry; parameters: species or system human/mouse; conditions: pXL6014 LAMP1_mseq3_ΔGYQTI; Table 18
# T2 construct: expressed in transfected cells; host or cells: 293-F (HEK293-derived), transient transfection
# T2 sequence (P11279 with tags, fused parts or gaps K57A/S58N/P60S/K61Q/N62I/M63V/T64N/F65I/D66S): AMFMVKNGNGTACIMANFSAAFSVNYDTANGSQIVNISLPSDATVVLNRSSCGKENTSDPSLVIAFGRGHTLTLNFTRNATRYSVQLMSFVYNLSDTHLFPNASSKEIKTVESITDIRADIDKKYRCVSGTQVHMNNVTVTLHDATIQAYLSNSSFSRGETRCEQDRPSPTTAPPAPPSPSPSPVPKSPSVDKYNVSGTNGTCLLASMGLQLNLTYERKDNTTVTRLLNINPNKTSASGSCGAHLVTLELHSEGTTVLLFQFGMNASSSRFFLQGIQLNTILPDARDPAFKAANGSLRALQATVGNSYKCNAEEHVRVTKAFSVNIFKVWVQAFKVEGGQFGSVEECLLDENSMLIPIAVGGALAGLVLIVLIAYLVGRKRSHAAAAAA
# Experimental: (§1) Different LAMP1 proteins were expressed at the cell membrane of HEK293 cells after transient expression from mammalian plasmids encoding the entire coding sequence of LAMP1 deleted of the intracellular lysosome-targeting motif GYQTI and substituted by a 5-Ala repeat sequence.
# (§2) Two days post transfection cells were processed, analyzed by flow cytometry (Guava® easyCyte™ 8HT) as mentioned in example 4.7, and the mean fluorescence was recorded. This fluorescence represents a semi-quantitative assessment of binding.
# [3] = molecular target: T3, Hybrid LAMP1 / glycan-deleted LAMP1 transmembrane proteins (Mus musculus, UniProt P11438, K100R/L93T/T102A/Y92H); experiment: as above; parameters: species or system human/mouse; conditions: pXL6047 mLAMP1_hseq6_ΔGYQTI
# T3 construct: expressed in transfected cells; host or cells: 293-F (HEK293-derived), transient transfection
# T3 sequence (P11438 with tags, fused parts or gaps Y92H/L93T/K100R/T102A): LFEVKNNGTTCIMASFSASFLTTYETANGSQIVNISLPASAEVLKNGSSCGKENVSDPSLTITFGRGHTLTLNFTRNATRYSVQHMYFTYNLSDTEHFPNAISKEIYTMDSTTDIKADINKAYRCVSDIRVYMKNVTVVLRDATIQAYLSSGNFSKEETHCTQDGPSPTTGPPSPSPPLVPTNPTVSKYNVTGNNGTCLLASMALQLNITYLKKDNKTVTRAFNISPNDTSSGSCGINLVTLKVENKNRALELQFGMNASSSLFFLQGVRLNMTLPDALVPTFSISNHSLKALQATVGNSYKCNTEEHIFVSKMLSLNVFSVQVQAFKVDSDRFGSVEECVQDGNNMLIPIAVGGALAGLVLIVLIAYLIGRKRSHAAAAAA
# Experimental: as §1, §2
# [4] = tested on: Hybrid LAMP1 / glycan-deleted LAMP1 transmembrane proteins; experiment: as above; parameters: species or system human/mouse; conditions: pXL6012 LAMP1_mseq1_ΔGYQTI; Table 18
# Chain of Hybrid LAMP1 / glycan-deleted LAMP1 transmembrane proteins (as listed by the source, stated change not applied): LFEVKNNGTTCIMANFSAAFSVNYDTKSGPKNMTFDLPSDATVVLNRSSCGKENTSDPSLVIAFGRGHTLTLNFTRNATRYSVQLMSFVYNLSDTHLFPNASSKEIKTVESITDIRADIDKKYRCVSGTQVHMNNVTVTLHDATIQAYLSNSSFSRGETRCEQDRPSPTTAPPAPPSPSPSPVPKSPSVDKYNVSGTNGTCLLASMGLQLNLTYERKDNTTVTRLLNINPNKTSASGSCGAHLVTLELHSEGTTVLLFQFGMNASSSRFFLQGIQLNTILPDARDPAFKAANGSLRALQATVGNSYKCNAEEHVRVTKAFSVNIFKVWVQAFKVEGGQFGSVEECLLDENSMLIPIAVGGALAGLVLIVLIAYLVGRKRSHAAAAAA
# Experimental: as §1, §2
Molecule,EC50 [1],Binding call [2],Mean fluorescence [2],Binding call ([3]; Table 17 Experiment no1),Mean fluorescence ([3]; Table 17 Experiment no1),Binding call ([3]; Table 17 Experiment no2),Mean fluorescence ([3]; Table 17 Experiment no2),Mean fluorescence [4],Binding call [4]
"MAb1: murine monoclonal anti-LAMP1 antibody, VH SEQ ID NO: 1, VL SEQ ID NO: 5 (antibody, V domains shown, Antibody Fragment; antibody fragment) VH: QVQLQQSGAELVKPGASVKMSCKASGYIFTNYNIHWVKKSPGQGLEWIGAIYPGNGDAPYSQKFKDKATLTADKSSSTTYMQLSRLTSEDSAVYYCVRANWDVAFAYWGQGTLVSVSA VL: DIQMTQSPPSLSASLGGKVTITCKASQDIDRYMAWYQDKPGKGPRLLIHDTSTLQPGIPSRFSGSGSGRDYSFSISNLEPEDIATYYCLQYDNLWTFGGGTKLEIK",4.9 nM,Binding,888,No binding,7,No binding,3,1027,–
"MAb2: murine monoclonal anti-LAMP1 antibody, VH SEQ ID NO: 8, VL SEQ ID NO: 12 (antibody, V domains shown, antibod fragment; antibody fragment) VH: QVQLQQSAAELARPGASVKMSCKASGYTFTSYTMHWVKQRPGQGLEWIGYFNPSSGYPEYNQKFKDKTTLTADKSSNTAFIQLNSLTSEDSAVYYCSRGYYYGSRGYALDFWGQGASVTVSS VL: NIVLTQSPVSLAVSLGQRATISCRASESVDINGNTFMHWYQQKPGQSPKLVIYAASNIESGVPARFSGSGSSTDFTFTIDPVEADDVATYYCQQNIEDPWTFGGGTKVEIK",6.3 nM,Binding,694,No binding,25,–,–,105,Low binding
